Target: T1, CREB-HZ (CREB-H bZIP region) (Mus musculus, UniProt Q91XE9 206-318)
T1 sequence: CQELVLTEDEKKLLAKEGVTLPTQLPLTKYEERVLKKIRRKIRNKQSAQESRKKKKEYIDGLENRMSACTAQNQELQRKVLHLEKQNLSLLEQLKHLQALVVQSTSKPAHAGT
Assay: competition

B1: box B, alcohol dehydrogenase-1 gene (dsDNA)
DNA 1: GATCTTGTACACGTAATCGTAGGATCC
DNA 2: GGATCCTACGATTACGTGTACAAGATC
- binding result: binds

Source: publication PMC1072803
